Key:
[1] = tested on: human breast cancer cell strain T-47D; experiment: Binding of antibody to cancer cell with FACS; format: cell-based
Protocol: Whether the MUC1 protein expressed on a surface of a cancer cell membrane and the 1B2 antibody bound thereto was investigated by FACS. A human breast cancer cell strain T-47D (ATCC, HTB-133) and a human mammary gland epithelial cell 184A1 (ATCC, CRL-8798) which had been trypsinized with Trypsin (manufactured by Invitrogen) were washed once with a FACS buffer (PBS containing 5% FCS, 0.05% sodium azide), and suspended in 100 μl of a FACS buffer containing 10 μg/ml 1B2 antibody and the reaction was allowed to proceed at room temperature for 2 hours. The resultant reaction product was washed with a FACS buffer two times, and suspended in 200 μl of FITC-Goat Anti-Mouse IgG (manufactured by ZYMED), and the reaction was allowed to proceed at room temperature for 1 hour. After washing with a FACS buffer two times, analysis was performed by FACSAria (manufactured by BD). As a result, in T-47D, the 1B2 antibody greatly shifted the fluorescent signal of FACS (about 300-fold) as compared with a control mouse IgG2a antibody (manufactured by SIGMA-ALDRICH), while in 184A, fluorescent shift by 1B2 was scarcely seen (about 2-fold).

[2] = target: T1, 2,3-ST6SL(DT*R)-20 (Compound No. 8) (Homo sapiens, UniProt P15941); experiment: Sugar chain specificity, competitive ELISA against Biotin-Tn(DT*R)-100; format: binding; settings: glycopeptide 2,3ST6SL (Compound No. 8)
T1 construct: Synthesis of MUC1 Tn20-mer Glycopeptide; made in house; host or cells: chemical solid-phase synthesis (Compound 5), then enzymatic sugar extension
Protocol: (§1) Such specificity can be expressed by a difference in cross reactivity. The cross reactivity is obtained by a calculation equation of (IC50 for cancer-associated structure 2,3ST/IC50 for sugar chain structure to be compared)×100(%). As used herein, inclusion of specificity refers to a difference of 2 fold or more.
(§2) Ten days after cell fusion, screening of a specific antibody-producing cell was performed. ELISA was used in screening is as follows. To each well of a 384-well microtiter plate (manufactured by Nunc) 35 μl of a Tris buffer (50 mM Tris-HCl, pH 7.5) containing 0.35 μg of an anti-mouse IgG antibody (manufactured by Shibayagi Co., Ltd.) was added to immobilize the antibody at 4° C. for 16 hours. After these wells were washed with 90 μl of a washing solution (physiological saline containing 0.01% Tween 20) once, 200 μl of BLOCK ACE (manufactured by Dainippon Sumitomo Pharma Co., Ltd.) was added, and this was allowed to stand at room temperature for 2 hours for blocking (an anti-mouse IgG antibody solid-phased plate). After each well was washed with 90 μl of a washing solution once, 10 μl of a hybridoma culture supernatant, 10 μl of a buffer A (50 mM Tris buffer containing 0.5% bovine serum albumin, 0.01% Tween 80, 0.05% Proclin 150, and 0.15 M. NaCl, pH 7.4), and 10 μl of a buffer A containing 0.01 ng of Biotin-2,3-ST(DT*R)-20 (Compound No. 16 of Table 1) and 2 ng of Streptavidin-HRP (manufactured by PIERCE) were added to perform a reaction at 4° C. for 16 hours. Then, after each well was washed with 90 μl of a washing solution three times, 25 μl of TMB+-Substrate-Chromogen (manufactured by DAKO) was added to develop a color at room temperature for 30 minutes, 25 μl of 0.05 M sulfuric acid was added to stop the reaction, and absorbance was measured at 450 nm. […] Using a mouse monoclonal antibody isotyping ELISA kit (manufactured by BD Bioscience), a subclass of the antibody was determined and, as a result, an isotype of 1B2 was IgG2a.
(§3) Fifteen (15) μl of a buffer A containing a MUC1 antibody was added to an anti-mouse IgG antibody solid-phased plate and the reaction was allowed to proceed at room temperature for 3 hours. […] Then, after each well was washed with 90 μl of a washing solution three times, 15 μl of TMB+-Substrate-Chromogen (manufactured by DAKO) was added to develop a color at room temperature for 30 minutes, 15 μl of 0.05 M sulfuric acid was added to stop the reaction, and absorbance at 450 nm was measured.

[3] = target: T2, 2,3-ST(DT*R)-20 (Compound No. 2) (Homo sapiens, UniProt P15941); experiment: as above; format: binding; settings: glycopeptide 2,3-ST (Compound No. 2), reference = 100%
T2 construct: Synthesis of MUC1 Tn20-mer Glycopeptide; made in house; host or cells: chemical solid-phase synthesis, then enzymatic sialylation
Protocol: as §1, §2, §3

[4] = target: T3, T(DT*R)-20 (Compound No. 1) (Homo sapiens, UniProt P15941); experiment: as above; format: binding; settings: glycopeptide T (Compound No. 1)
T3 construct: Synthesis of MUC1 Tn20-mer Glycopeptide; made in house; host or cells: chemical solid-phase synthesis
Protocol: as §1, §2, §3

T1 sequence (P15941 136-155): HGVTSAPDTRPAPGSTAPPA

Cross reactivity letting 2,3-ST to be 100% [2]: 0.064% | Cross reactivity letting 2,3-ST to be 100% [3]: 100% | Cross reactivity letting 2,3-ST to be 100% [4]: 96%
B1: 1B2: mouse monoclonal anti-MUC1 antibody, isotype IgG2a, clone from immunization with 2,3-ST(DT*R)-20 conjugated to BSA (antibody, V domains shown)
VH: MEWIWIFLFILSGTAGVQSQVQLQQSGAELARPGASVKLSCKASGYTFTNYGLSWVKQRTGQGLEWIGENHPGSGIIYHNEKFRGKATLTADKSSSTAYVQLSSLTSEDSAVYFCARSSGTRGFAYWGQGTLVTVSA
VL: MKLPVRLLVLMFWIPASSSDVLMTQTPLSLPVSLGDQASISCRSSQSIVHSNGNTYLEWYLQKPGQSPKLLIYKVSNRFSGVPDRFSGSGSGTDFTLKISRVEAEDLGVYYCFQGSHGPWTFGGGTKLEIKRA
modifications: Antibody 1B2 VH sequence; Antibody 1B2 VL sequence
reaction with breast cancer cell (FACS) [1]: strongly reacts | shift of fluorescent signal of FACS as compared with control mouse IgG2a antibody ([1]; 10 μg/ml antibody): about 300 fold

Source: US8722856B2, “Anti-MUC1 antibody” (National University Corporation Hokkaido University, priority 2008, dated 2014)
